# Laboratory results from article PMC2783235.
# Columns and labels:
# [1] = molecular target: L64C (single-Cys mutant of FT-HT-Xa) (S. cerevisiae) (UniProt D6VTK4); test: cross-linking
# [2] = molecular target: L64C (single-Cys mutant of FT-HT-Xa) (S. cerevisiae) (UniProt D6VTK4); test: SDS-PAGE and western blot of membranes
# [3] = molecular target: L64C (single-Cys mutant of FT-HT-Xa) (S. cerevisiae) (UniProt D6VTK4); test: cross-linking; remark: listed apart in the source
# [4] = molecular target: L64C (single-Cys mutant of FT-HT-Xa) (S. cerevisiae) (UniProt D6VTK4); test: cross-linking; remark: listed apart in the source
# [5] = molecular target: T65C (single-Cys mutant of FT-HT-Xa) (S. cerevisiae) (UniProt D6VTK4); test: cross-linking
# [6] = molecular target: T65C (single-Cys mutant of FT-HT-Xa) (S. cerevisiae) (UniProt D6VTK4); test: SDS-PAGE and western blot of membranes
# [7] = molecular target: T65C (single-Cys mutant of FT-HT-Xa) (S. cerevisiae) (UniProt D6VTK4); test: cross-linking; remark: listed apart in the source
# [8] = molecular target: T65C (single-Cys mutant of FT-HT-Xa) (S. cerevisiae) (UniProt D6VTK4); test: cross-linking; remark: listed apart in the source
# [9] = molecular target: L291C (single-Cys mutant of FT-HT-Xa) (S. cerevisiae) (UniProt D6VTK4); test: cross-linking
# [10] = molecular target: L291C (single-Cys mutant of FT-HT-Xa) (S. cerevisiae) (UniProt D6VTK4); test: SDS-PAGE and western blot of membranes
# [11] = molecular target: L291C (single-Cys mutant of FT-HT-Xa) (S. cerevisiae) (UniProt D6VTK4); test: cross-linking; remark: listed apart in the source
# [12] = molecular target: L291C (single-Cys mutant of FT-HT-Xa) (S. cerevisiae) (UniProt D6VTK4); test: cross-linking; remark: listed apart in the source
# [13] = molecular target: S292C (single-Cys mutant of FT-HT-Xa) (S. cerevisiae) (UniProt D6VTK4); test: cross-linking
# [14] = molecular target: S292C (single-Cys mutant of FT-HT-Xa) (S. cerevisiae) (UniProt D6VTK4); test: SDS-PAGE and western blot of membranes
# [15] = molecular target: S292C (single-Cys mutant of FT-HT-Xa) (S. cerevisiae) (UniProt D6VTK4); test: cross-linking; remark: listed apart in the source
# [16] = molecular target: S292C (single-Cys mutant of FT-HT-Xa) (S. cerevisiae) (UniProt D6VTK4); test: cross-linking; remark: listed apart in the source
# [17] = molecular target: W295C (single-Cys mutant of FT-HT-Xa) (S. cerevisiae) (UniProt D6VTK4); test: cross-linking
# [18] = molecular target: W295C (single-Cys mutant of FT-HT-Xa) (S. cerevisiae) (UniProt D6VTK4); test: SDS-PAGE and western blot of membranes
# [19] = molecular target: W295C (single-Cys mutant of FT-HT-Xa) (S. cerevisiae) (UniProt D6VTK4); test: cross-linking; remark: listed apart in the source
# [20] = molecular target: W295C (single-Cys mutant of FT-HT-Xa) (S. cerevisiae) (UniProt D6VTK4); test: cross-linking; remark: listed apart in the source
# [21] = molecular target: S293C (single-Cys mutant of FT-HT-Xa) (S. cerevisiae) (UniProt D6VTK4); test: cross-linking
# [22] = molecular target: S293C (single-Cys mutant of FT-HT-Xa) (S. cerevisiae) (UniProt D6VTK4); test: SDS-PAGE and western blot of membranes
# [23] = molecular target: S293C (single-Cys mutant of FT-HT-Xa) (S. cerevisiae) (UniProt D6VTK4); test: cross-linking; remark: listed apart in the source
# [24] = molecular target: S293C (single-Cys mutant of FT-HT-Xa) (S. cerevisiae) (UniProt D6VTK4); test: cross-linking; remark: listed apart in the source
# [25] = molecular target: M294C (single-Cys mutant of FT-HT-Xa) (S. cerevisiae) (UniProt D6VTK4); test: cross-linking
# [26] = molecular target: M294C (single-Cys mutant of FT-HT-Xa) (S. cerevisiae) (UniProt D6VTK4); test: SDS-PAGE and western blot of membranes
# [27] = molecular target: M294C (single-Cys mutant of FT-HT-Xa) (S. cerevisiae) (UniProt D6VTK4); test: cross-linking; remark: listed apart in the source
# [28] = molecular target: M294C (single-Cys mutant of FT-HT-Xa) (S. cerevisiae) (UniProt D6VTK4); test: cross-linking; remark: listed apart in the source
# [29] = molecular target: A296C (single-Cys mutant of FT-HT-Xa) (S. cerevisiae) (UniProt D6VTK4); test: cross-linking
# [30] = molecular target: A296C (single-Cys mutant of FT-HT-Xa) (S. cerevisiae) (UniProt D6VTK4); test: SDS-PAGE and western blot of membranes
# [31] = molecular target: A296C (single-Cys mutant of FT-HT-Xa) (S. cerevisiae) (UniProt D6VTK4); test: cross-linking; remark: listed apart in the source
# [32] = molecular target: A296C (single-Cys mutant of FT-HT-Xa) (S. cerevisiae) (UniProt D6VTK4); test: cross-linking; remark: listed apart in the source
substance,measurement,setting,value
L64C (single-Cys mutant of FT-HT-Xa) (from UniProt D6VTK4 1-431) (receptor),percent dimer,[1],11.3%
same,percent dimer,[2],15.8%
same,percent dimer,[3],13.6%
same,percent dimer,[4],14.6%
T65C (single-Cys mutant of FT-HT-Xa) (from UniProt D6VTK4 1-431) (receptor),percent dimer,[5],14.4%
same,percent dimer,[6],16.2%
same,percent dimer,[7],12.8%
same,percent dimer,[8],15.9%
L291C (single-Cys mutant of FT-HT-Xa) (from UniProt D6VTK4 1-431) (receptor),percent dimer,[9],66.4%
same,percent dimer,[10],31.8%
same,percent dimer,[11],44.5%
same,percent dimer,[12],52%
S292C (single-Cys mutant of FT-HT-Xa) (from UniProt D6VTK4 1-431) (receptor),percent dimer,[13],82.3%
same,percent dimer,[14],30.2%
same,percent dimer,[15],65.9%
same,percent dimer,[16],75.5%
W295C (single-Cys mutant of FT-HT-Xa) (from UniProt D6VTK4 1-431) (receptor),percent dimer,[17],95.2%
same,percent dimer,[18],15.7%
same,percent dimer,[19],86.3%
same,percent dimer,[20],76.2%
S293C (single-Cys mutant of FT-HT-Xa) (from UniProt D6VTK4 1-431) (receptor),percent dimer,[21],70.2%
same,percent dimer,[22],21.1%
same,percent dimer,[23],44%
same,percent dimer,[24],38.5%
M294C (single-Cys mutant of FT-HT-Xa) (from UniProt D6VTK4 1-431) (receptor),percent dimer,[25],75.6%
same,percent dimer,[26],27%
same,percent dimer,[27],50.8%
same,percent dimer,[28],57.8%
A296C (single-Cys mutant of FT-HT-Xa) (from UniProt D6VTK4 1-431) (receptor),percent dimer,[29],91.1%
same,percent dimer,[30],14.8%
same,percent dimer,[31],82.1%
same,percent dimer,[32],73.6%
